Measurements published in US11452764B2, “Inhibiting FAK-AKT interaction to inhibit metastasis” (Board of Trustees of Michigan State University, priority 2017, dated 2022).
“Also recorded” adds a separate entry of the source. Each block holds one molecule with its values, some of them ahead of it. Where no end group is shown, it is not given here.

Experiments:
[1] = system: FAK-Tyr-397 phosphorylation; experiment: FAK-Y397 western blotting in suspended SW620 cells at ambient or 15 mmHg increased pressure (ZINC compounds); format: cell-based, human; conditions: for Pressure stimulation of FAK-pTyr397 / Basal FAK-pTyr397: concentrations studied: ZINC31501681 1 pM-300 μM, ZINC58264388 1 nM-100 nM, ZINC40099027 10 pM-10 nM, ZINC25613745 1 nM
Excerpt: Extracellular pressure was increased by 15 mmHg over ambient pressure using a temperature and pressure-controlled box as described by Basson et al. (J Cell Biochem, 78: 47-61 (2000)).
Cells were maintained at ambient or increased pressure in bacteriologic plastic dishes pacificated with heat-inactivated bovine serum albumin to prevent adhesion and avoid adhesion-associated background FAK activation. Cells were lysed in lysis buffer, resolved by 10% SDS-PAGE, transferred to nitrocellulose and blotted with antibody to Tyr-397-phosphorylated FAK (rabbit monoclonal ab81298, Abcam, San Francisco, Calif., USA) and anti-rabbit 680 (LI-COR Inc. Lincoln, Nebr., USA), before quantitation using Kodak Scientific Imaging Systems 1D, V.3.5.4 (Zeng et al., Oncotarget, 8 98051-98067 (2017)). Total FAK (Anti-FAK, clone 4.47 Merck, Darmstadt, Germany with secondary anti-mouse 800, LI-COR Inc. Lincoln, Nebr., USA) served as a loading control. FAK and Tyr-397-phosphorylated FAK western blots yielded doublets similar to those previously observed by others (McConnell et al. Mol Cancer 10: 75 (2011); Aflaki et al. Cell Mol Life Sci, 68: 3933-3947 (2011)); Das et al. Cancer Res, 72: 6217-6226 (2012); Ammoun et al. Oncogene, 31: 1710-1722 (2012)). Both bands were quantitated together.
Four structurally similar molecules to the FAK-derived sequence LAHPP (SEQ ID NO:25) (Table 2) were evaluated for their ability to prevent FAK activation by 15 mmHg increased extracellular pressure in human SW620 colon cancer cells. […] The structures of these compounds are shown below (and in FIG. 17).

Akt1 = Akt1 (Homo sapiens, UniProt P31749); experiment: GST-FAK truncation/mutant fusion protein pull-down of Akt1 (cell lysate or purified Akt1); format: binding; parameters: endogenous in cells; host or cells: Caco-2 or SW620 cell lysate; conditions: for Akt1 pulled down by GST-FAK truncations: GST pull-down, N=4, p<0.05; for Akt1 pull-down by mutated GST-FAK-NT1 versus wild-type NT1: SW620 lysate, densitometry normalized to wild-type NT1, n=8-19, p<0.05
Description: Glutathione-Sepharose 4B beads (15 μl) were washed twice in ice-cold PBS and resuspended in 400 μl PBS. Bacterial lysate containing GST-Akt1, GST-FAK-NT1 (truncations), or GST proteins (gift of Dr. J. Chen) were then added in excess and incubated with the beads for 1 h. Glutathione-Sepharose 4B beads coupled to GST-Akt1, GST-FAK (truncations), or GST were then washed twice with PBS by centrifuge for 5 min at 500 g and incubated with nontransfected or transfected Caco-2 cell lysates (600-800 μg protein) overnight at 4° C. Transfected Caco-2 cells received plasmids encoding HA-WT-FAK or HA-FRNK. Nontransfected and transfected Caco-2 cell lysates were prepared in cell lysis buffer lysis buffer [50 mM Tris (pH 7.4), 150 mM NaCl, 1% Triton X-100, 1% sodium deoxycholate, 0.1% SDS, 1 mM EDTA, 1 mM phenylmethylsulfonyl fluoride, 1 mM Na3VO4, 50 mM NaF, 10 mM sodium pyrophosphate, […] (pH 7.4)]. Following incubation, beads were washed twice with lysis buffer without SDS and protease inhibitors. Proteins were eluted with Laemmli SDS sample dilution buffer, separated by 10% SDS-PAGE, and immunoblotted with GST, Akt1 (Cell Signaling Technology, Danvers, Mass.), or HA monoclonal antibodies (Covance, Chantilly, Va.).
(§1) In some cases Glutathione-Sepharose-4B beads (30 μl) (GE Healthcare Life Science, Pittsburgh, Pa.) were conjugated with GST (expressed protein from a 250 μl bacterial pellet per 30 μl of beads) or recombinant GST-tagged (expressed protein from a 3 ml bacterial pellet per 30 μl of beads) (24) and incubated with lysate from 2×10^7 Caco-2 or SW620 cells (1500 μg protein) or purified Akt1 (0.35 μg) (Origene, Rockville, Md.) overnight at 4° C. Similar incubation for two hours at 4° C. was performed with FAK-derived peptides (Peptide 2.0, Chantilly, Va.) reconstituted in sterile water and mixed with conjugated beads and cell lysate for a final concentration of […] before overnight Akt1 incubation. Bound protein was eluted for western analysis (24).
Protein concentrations were determined by bicinchoninic acid (BCA) protein assay (Pierce, Rockford, Ill.). Eluate from GST pull-downs or collected cell lysates was resolved by SDS-PAGE and transferred to Hybond P 0.45 PVDF blotting membrane (Amersham Life Science, Arlington Heights, Ill.). Membranes were blocked for 1 hour at room temperature with Odyssey TBS Blocking Buffer (Amersham Life Science, Arlington Heights, Ill.) and blotted overnight at 4° C. with antibodies against FAK (#3285), Phospho-FAK Tyr397 (#3283), Akt1 (#2967), Phospho-Akt1 Ser473 (#9271), GSK-3β (#9315), Phospho-GSK-3β Ser9 (#9315), or the GST tag (#2624) (CST, Beverly, Mass.). Membranes were visualized by the infrared fluorescent IRDye system (LI-COR Biosciences, Lincoln, Nebr.) and analyzed on an Odyssey scanner (LI-COR Biosciences, Lincoln, Nebr.) within the linear range. The doublet produced by the Akt1 antibody is consistent with results with this antibody (Ko et al., Elife: 5 (2016); Wu et al. Cell Discov 3: 16054 (2017)) and other (Datta et al. Cell 91: 231-41 (1997)) anti-Akt antibodies. Results were normalized to the appropriate GST tag, GAPDH, or total protein (for phosphorylated proteins) and relative to associated ambient controls unless stated otherwise.
Because the NT1 region of FAK is still quite large, we further truncated FAK-NT1 in an attempt to specify the region responsible for Akt1 binding. Five truncations were generated: NT1 (residues 1-126), NT1-1 (residues 1-60), NT1-2 (residues 61-126), […] (residues 61-93), and NT1-2-2 (residues 94-126) (FIG. 4A).
Tests involved use of 0.3 μg of purified Akt1 in pull-down assays to approximate the Akt1 in 1,500 μg of whole cell lysate, the lysate from 1×10^7 SW620 cells previously used in similar pull-down assays. This amount (0.3 μg of purified Akt1) was selected from Western blots comparing band intensity of 0.001-0.05 μg/lane of purified Akt1 against the band intensity of 40 or 80 μg/lane of cell lysate (not shown). […]

FAK-Akt1 interaction = target: T1, FAK-Akt1 interaction (Homo sapiens, UniProt P31749); experiment: Interference of FAK-derived peptides with GST-FAK / GST-FAK-NT1 pull-down of Akt1; format: binding; conditions: for Akt1 pulldown by full length GST-FAK in presence of interfering 7 amino acid peptide: bait human wild type GST-FAK, peptides at 160 μM, vs. vehicle, n=12-14
T1 construct: endogenous in cells; host or cells: Akt1 from Caco-2/SW620 cell lysate; GST-FAK bait expressed in E. coli BL21 (pGEX-4T1)
Description: as §1
To minimize the effect of non-specific binding to GST, a larger FAK-NT1 peptide (relative to GST) was used as bait and the effects of interference by NT1-2-2 FAK truncated peptides were assessed.
A full length GST-FAK was used as bait to further validate the ability of the interfering peptides to block Akt1 interaction with the entire FAK molecule. Because the seven-amino acid sequence from the short helix (LAHPPEE, SEQ ID NO:1) seemed sufficient for Akt1 binding (e.g., as shown in FIG. 6E), the focus was placed on this seven amino acid sequence and mutants thereof. […] Neither a scrambled version of the short helix (HPELAPE, SEQ ID NO:23) nor a peptide derived from the β-strand secondary structure C-terminal adjacent to the short helix (WKYELRI) interfered with pulldown.

[2] = SW620, 15 mmHg increased pressure

Akt1, sequence (P31749 whole entry, the tested form may be a part): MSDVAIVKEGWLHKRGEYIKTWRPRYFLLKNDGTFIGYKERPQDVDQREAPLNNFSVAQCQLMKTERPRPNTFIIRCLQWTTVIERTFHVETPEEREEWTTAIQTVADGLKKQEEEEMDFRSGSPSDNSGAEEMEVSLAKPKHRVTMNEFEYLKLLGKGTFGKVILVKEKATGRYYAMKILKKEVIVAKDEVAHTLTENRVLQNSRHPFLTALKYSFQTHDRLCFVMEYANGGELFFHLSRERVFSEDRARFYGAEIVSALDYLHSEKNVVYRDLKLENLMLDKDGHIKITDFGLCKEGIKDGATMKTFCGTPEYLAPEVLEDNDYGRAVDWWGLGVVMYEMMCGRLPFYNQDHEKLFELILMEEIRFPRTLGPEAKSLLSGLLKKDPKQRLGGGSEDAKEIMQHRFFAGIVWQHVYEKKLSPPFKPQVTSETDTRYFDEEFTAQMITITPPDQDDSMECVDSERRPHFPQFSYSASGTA
T1 sequence (P31749 whole entry): as the sequence (P31749 whole entry, the tested form may be a part) above

Molecule: O=C(N[C@@H](CC(=O)N1CCC[C@H]1c1nnc2ccccn12)c1ccccc1)c1ccccc1 [ZINC31501681]
Pressure stimulation of FAK-pTyr397 [1, 2]: prevented a further pressure-induced increase in FAK-Tyr-397 phosphorylation
Basal FAK-pTyr397 ([1]; SW620, ambient pressure): increased basal FAK-Tyr-397 phosphorylation
Phosphorylation of FAK-Tyr-397 at ambient pressure (pFAKY397/FAK) ([1]; suspended SW620, 1-100 pM, 30 minutes, vs 0.1% DMSO, five experiments, p≤0.05): enhances the phosphorylation of FAK-Tyr-397

Akt1 pulled down by GST-FAK truncations (Akt1): significantly more Akt1
Akt1 pull-down by GST-NT1-2-2 and its truncations versus GST control (Akt1; n=6, p<0.05 vs. GST): pulled down much more
Molecule: NT1-2-2: recombinant GST-FAK truncated peptide, residues 94-126 (SEQ ID NO:2) (EVHWVHLDMGVSSVREKYELAHPPEEWKYELRI; also: GST fusion (recombinant))

Akt1 pulldown by full length GST-FAK in presence of interfering 7 amino acid peptide (FAK-Akt1 interaction): reduced Akt1 pulldown
Molecule: LAHPSEE [mutant (P117S) version of the seven amino acid FAK peptide]

Molecule: EVHWVHLDMGVSSVREKYELAHPPEEWKYELRI (listed as Homo sapiens) [Pep-FAK-NT1-2-2, wild-type 33 amino acid FAK peptide, residues 94-126]
Akt1 pulled down by GST-FAK-NT1 in presence of interfering 33 amino acid peptide (FAK-Akt1 interaction; bait GST-FAK-NT1, vs. vehicle (water), n=4): reduced binding between GST-FAK-NT1 and Akt1

Akt1 pull-down by mutated GST-FAK-NT1 versus wild-type NT1 (Akt1): lowered Akt1 pull-down
Molecule: FAK(P117S): GST-FAK-NT1 with P117S mutation (LAHPSEE)

Akt1 pull-down by mutated GST-FAK-NT1 versus wild-type NT1 (Akt1): increased Akt1 pull-down
Molecule: FAK(L113A/P116C/P117G): GST-FAK-NT1 triple mutant (AAHCGEE)

Akt1 pulled down by GST-FAK truncations (Akt1): significantly smaller amount of Akt1
Molecule: NT1-1: recombinant GST-FAK truncated peptide, residues 1-60 (MAAAYLDPNLNHTPNSSTKTHLGTGMERSPGAMERVLKVFHYFESNSEPTTWASIIRHGD; also: recombinant GST fusion (GST tag); listed as Homo sapiens)

Akt1 pulldown by full length GST-FAK in presence of interfering 7 amino acid peptide (FAK-Akt1 interaction): No such effect
Molecule: HPELAPE [scrambled short helix control peptide, reference compound]

Molecule: COc1ccc([C@@H]2CCCN2C(=O)Nc2cc(C(F)(F)F)ccc2N2CCOCC2)cc1 [ZINC40099027]
Pressure stimulation of FAK-pTyr397 [1, 2]: prevented a further pressure-induced increase in FAK-Tyr-397 phosphorylation
Basal FAK-pTyr397 ([1]; SW620, ambient pressure): increased basal FAK-Tyr-397 phosphorylation

Akt1 pulled down by GST-FAK truncations (Akt1): significantly smaller amount of Akt1
Molecule: NT1-2-1: recombinant GST-FAK truncated peptide, residues 61-93 (ATDVRGIIQKIVDSHKVKNVACYGFRLSHLRSE; also: recombinant GST fusion (GST tag); listed as Homo sapiens)

Akt1 pulldown by full length GST-FAK in presence of interfering 7 amino acid peptide (FAK-Akt1 interaction): No such effect
Molecule: WKYELRI [β-strand control peptide, C-terminal adjacent to the short helix, reference compound]

Akt1 pulldown by full length GST-FAK in presence of interfering 7 amino acid peptide (FAK-Akt1 interaction): reduced Akt1 pulldown
Molecule: AAHCGEE [triple mutant L113A, P116C, P117G version of the FAK peptide]

Molecule: Cc1ccccc1[C@@H]1CCCN1C(=O)C[C@H](NC(N)=O)c1cccs1 [ZINC58264388]
Concentrations at which there was no further increase of FAK-pTyr397 by pressure [1, 2]: (10-100 nM)
Pressure stimulation of FAK-pTyr397 [1, 2]: prevented a further pressure-induced increase in FAK-Tyr-397 phosphorylation
Concentrations at which basal FAK-pTyr397 was increased ([1]; SW620, ambient pressure): (10-100 nM)
Basal FAK-pTyr397 ([1]; SW620, ambient pressure): increased basal FAK-Tyr-397 phosphorylation

Molecule: C=C(Cl)/C(=C\C)[C@H](CC(=O)N1CCC[C@H]1c1ccc(OC)c(OC)c1)NC(N)=O [ZINC25613745]
Pressure stimulation of FAK-pTyr397 [1, 2]: affected neither basal nor pressure-stimulated FAK-Tyr-397 phosphorylation; also recorded: Maintained
Basal FAK-pTyr397 ([1]; SW620, ambient pressure): affected neither basal nor pressure-stimulated FAK-Tyr-397 phosphorylation; also recorded: No change

Molecule: LAHPPEE (listed as Homo sapiens) [wild-type seven amino acid short helix peptide, FAK residues 113-119]
Akt1 pulldown by full length GST-FAK in presence of interfering 7 amino acid peptide (FAK-Akt1 interaction): reduced Akt1 pulldown
